Changes are numbered by the printed parent chain. Names and notes keep the numbering of the source.
B1: EcGrx2 (Escherichia coli K-12) (protein)
chain: MKLYIYDHCPYCLKARMIFGLKNIPVELHVLLNDDAETPTRMVGQKQVPILQKDDSRYMPESMDIVHYVDKLDGKPLLTGKRSPAIEEWLRKVNGYANKLLLPRFAKSAFDEFSTPAARKYFVDKKEASAGNFADLLAHSDGLIKNISDDLRALDKLIVKPNAVNGELSEDDIQLFPLLRNLTLVAGINWPSRVADYRDNMAKQTQINLLSSMAI
B2: EcGrx2 (Escherichia coli K-12; C12S/C9S) (protein)
chain: B1 chain with C9S, C12S

Substrate: O=C1O[C@H]([C@@H](O)CO)C(=O)C1=O
Assay: purified protein
Details: 2 mM GSH

| Protein | Km (50 mM sodium phosphate pH 7.4) | kcat (50 mM sodium phosphate pH 7.4) | Km (50 mM sodium phosphate pH 7.4, His6-tagged mutant) |
| --- | --- | --- | --- |
| B1 | 2879 ± 640.4 µM | 3.8245 s⁻¹ |  |
| B2 |  |  | 968 (±462.3) µM |
